Paper PMC9879961 (Nature Communications, 2023)

T1: RAD51 (UniProt Q06609 1-339)
T1 construct: No tag is named; also called RAD51 recombinase; source: E. coli BLR pRARE (pET11-RAD51), purified (ammonium sulfate, Q Sepharose, hydroxyapatite, Mono-Q)
T1 sequence (looked up): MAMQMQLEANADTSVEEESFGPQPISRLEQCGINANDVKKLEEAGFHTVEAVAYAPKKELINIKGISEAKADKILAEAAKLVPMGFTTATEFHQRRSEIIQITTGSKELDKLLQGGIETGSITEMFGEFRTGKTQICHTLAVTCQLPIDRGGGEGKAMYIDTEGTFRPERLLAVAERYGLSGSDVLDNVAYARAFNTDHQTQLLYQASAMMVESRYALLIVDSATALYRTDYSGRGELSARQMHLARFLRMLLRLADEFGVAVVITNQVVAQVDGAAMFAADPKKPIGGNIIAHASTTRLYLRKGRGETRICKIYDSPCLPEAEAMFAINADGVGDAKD

T2: CTRB (Homo sapiens, UniProt P51587 3194-3418)
T2 sequence: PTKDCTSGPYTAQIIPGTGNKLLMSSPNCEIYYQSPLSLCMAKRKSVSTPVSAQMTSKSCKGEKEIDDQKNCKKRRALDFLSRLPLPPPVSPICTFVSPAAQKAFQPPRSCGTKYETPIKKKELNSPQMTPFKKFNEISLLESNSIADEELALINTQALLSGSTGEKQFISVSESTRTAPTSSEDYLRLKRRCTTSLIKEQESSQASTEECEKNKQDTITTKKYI


Key:
RAD51 [1] = molecular target: T1, RAD51; test: pull-down; GST-tagged TR2 polypeptides captured on glutathione-Sepharose with RAD51; 10 µl buffer K (20 mM KH2PO4 pH 7.5, 0.5 mM EDTA, 10% glycerol, 0.01% Igepal) with 150 mM KCl; SDS-PAGE, Coomassie; settings: both partners purified
CTRB = molecular target: T2, CTRB; test: EMSA; highest affinity of the three DNAs; EMSA: 10 nM DNA, 35 mM Tris pH 7.5, 1 mM MgCl2, 1 mM DTT, 100 ug/ml BSA, 50 mM KCl, 25 C, 5 min; 8% native PAGE in TAE; settings: protein: recombinant; tags: N-term His6-thioredoxin-S (pET32a), C-term Flag; label: 5' Cy5 on H3; fork 1:2, 40 bp duplex with two 40 nt ssDNA arms
RAD51 [2] = molecular target: T1, RAD51; test: pull-down; CTRB species held through the S-tag on S-Protein agarose; RAD51 and CTRB 4 µg each; 25 µl buffer T (25 mM Tris-HCl pH 7.5, 0.5 mM EDTA, 10% glycerol, 0.01% Igepal) with 150 mM KCl and Benzonase; on ice 30 min, resin 1 h at 4 °C; SDS-PAGE, Coomassie; settings: both partners purified

binding result (RAD51 [1]) | binding result (RAD51 [2]) | Binder | other results
binds |  | GST-TR2 with deletion of residues 3291-3295 (domain or fragment, human, UniProt P51587 3265-3330, looked up, BRCA2, human, TR2 region, residues 3265-3330, internally truncated; source: E. coli Rosetta (pGEX-TR2 variant), purified (glutathione-Sepharose, SP Sepharose); not shown: GST, N-terminal, kept) CKKRRALDFLSRLPLPPPVSPICTFVKAFQPPRSCGTKYETPIKKKELNSPQMTPFKKFNE | 
 |  | Fork substrate (Oligo-H3/H5) (mixed) DNA 1: TTGATAAGAGGTCATTTGAATTCATGGCTTAGAGCTTAATTGCTGAATCTGGTGCTGGGATCCAACATGTTTTAAATATG DNA 2: CATATTTAAAACATGTTGGATCCCAGCACCAGATTCAGCATACGTTACCGATCGTACGTTCGATGCTGGCTACTGCTAGC | binding result (CTRB): binds
binds |  | GST-TR2 with deletion of residues 3306-3310 (domain or fragment, human, UniProt P51587 3265-3330, looked up, BRCA2, human, TR2 region, residues 3265-3330, internally truncated; source: E. coli Rosetta (pGEX-TR2 variant), purified (glutathione-Sepharose, SP Sepharose); not shown: GST, N-terminal, kept) CKKRRALDFLSRLPLPPPVSPICTFVSPAAQKAFQPPRSCGPIKKKELNSPQMTPFKKFNE | 
binds |  | GST-TR2 (BRCA2 residues 3265-3330) (domain or fragment, human, UniProt P51587 3265-3330, looked up, BRCA2, human, TR2 region, residues 3265-3330; also called BRCA2-TR2 polypeptide; source: E. coli Rosetta (pGEX-TR2), purified (glutathione-Sepharose, SP Sepharose); not shown: GST, N-terminal, kept) CKKRRALDFLSRLPLPPPVSPICTFVSPAAQKAFQPPRSCGTKYETPIKKKELNSPQMTPFKKFNE | 
 | binds | CTRB (BRCA2 residues 3194-3418), His6-Thioredoxin-S tagged, C-terminally Flag-tagged (domain or fragment, human, UniProt P51587 3194-3418, looked up, BRCA2, human, residues 3194-3418 of the 3,418-residue protein; No tag cleavage is described; also called wild-type CTRB; source: E. coli Rosetta (pET32a), purified (Ni-NTA, Source S, anti-Flag M2, Mono-Q)) PTKDCTSGPYTAQIIPGTGNKLLMSSPNCEIYYQSPLSLCMAKRKSVSTPVSAQMTSKSCKGEKEIDDQKNCKKRRALDFLSRLPLPPPVSPICTFVSPAAQKAFQPPRSCGTKYETPIKKKELNSPQMTPFKKFNEISLLESNSIADEELALINTQALLSGSTGEKQFISVSESTRTAPTSSEDYLRLKRRCTTSLIKEQESSQASTEECEKNKQDTITTKKYI | 
 | binds | CTRB-4A (BRCA2 residues 3194-3418, KKRR(3266-3269) to AAAA) (domain or fragment, human, UniProt P51587 3194-3418, looked up, BRCA2, human, residues 3194-3418; also called 4 A mutant; source: E. coli Rosetta (pET32a), purified as the wild type) PTKDCTSGPYTAQIIPGTGNKLLMSSPNCEIYYQSPLSLCMAKRKSVSTPVSAQMTSKSCKGEKEIDDQKNCAAAAALDFLSRLPLPPPVSPICTFVSPAAQKAFQPPRSCGTKYETPIKKKELNSPQMTPFKKFNEISLLESNSIADEELALINTQALLSGSTGEKQFISVSESTRTAPTSSEDYLRLKRRCTTSLIKEQESSQASTEECEKNKQDTITTKKYI | 
 | binds | CTRB-S3291E (domain or fragment, human, UniProt P51587 3194-3418, looked up, BRCA2, human, CTRB (residues 3194-3418) with S3291E; Called a CTRB mutant purified as wild-type CTRB; source: E. coli, purified using the procedure developed for wild-type CTRB) PTKDCTSGPYTAQIIPGTGNKLLMSSPNCEIYYQSPLSLCMAKRKSVSTPVSAQMTSKSCKGEKEIDDQKNCKKRRALDFLSRLPLPPPVSPICTFVEPAAQKAFQPPRSCGTKYETPIKKKELNSPQMTPFKKFNEISLLESNSIADEELALINTQALLSGSTGEKQFISVSESTRTAPTSSEDYLRLKRRCTTSLIKEQESSQASTEECEKNKQDTITTKKYI | 
 | binds | CTRB-S3291A (domain or fragment, human, UniProt P51587 3194-3418, looked up, BRCA2, human, CTRB (residues 3194-3418) with S3291A; Called a CTRB mutant purified as wild-type CTRB; source: E. coli, purified using the procedure developed for wild-type CTRB) PTKDCTSGPYTAQIIPGTGNKLLMSSPNCEIYYQSPLSLCMAKRKSVSTPVSAQMTSKSCKGEKEIDDQKNCKKRRALDFLSRLPLPPPVSPICTFVAPAAQKAFQPPRSCGTKYETPIKKKELNSPQMTPFKKFNEISLLESNSIADEELALINTQALLSGSTGEKQFISVSESTRTAPTSSEDYLRLKRRCTTSLIKEQESSQASTEECEKNKQDTITTKKYI | 
